Laboratory results reported in the supplement of paper PMC9170038.

Assays:
MS2 coat protein [1] = test: apparent KD of MS2 coat protein; designed switch direction (-1 OFF switch, 1 ON switch): 1; higher = weaker reporter binding; details: Eterna round: R98
Description: (§1)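 RNA-MaP: designed FMN/MS2 RNA switches (84 nt design region) are transcribed on-chip within common flanks and titrated with SNAP-549-labelled MS2 coat protein (about 1-3000 nM) in 100 mM Tris pH 7.5, 80 mM KCl, 4 mM MgCl2, without or with 200 uM FMN. Median apparent KD per design; activation ratio = KD,OFF / KD,ON.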

MS2 coat protein [2] = test: apparent KD of MS2 coat protein; higher = weaker reporter binding; details: Eterna round: R101
Description: as §1

| Sequence | apparent KD of MS2 coat protein (MS2 coat protein [1]; input ligand: FMN 200 uM) [nM] | apparent KD of MS2 coat protein (MS2 coat protein [1]; input ligand: none) [nM] | apparent KD of MS2 coat protein (MS2 coat protein [2]; input ligand: FMN 200 uM) [nM] | apparent KD of MS2 coat protein (MS2 coat protein [2]; input ligand: none) [nM] |
| --- | --- | --- | --- | --- |
| CAUAUAUGGUGAGGAUAUGCAGAGGAUCACCCUGUAGAAGGCAUCAGGGUAGAAGGUGCAAGGAUCACCUGUAAGGAUAUAUCC [pwkr2 ssNG1 DX.28] | 979 | 864 | – | – |
| CCAGAUAUAUGAGGAUAUCGAGUGGAAUACACUCGAGAAGGUAUGUGAAAACAUGAGGAUCACCCAUGUGAUUAAUAAUCUGGA [SameState NG1 #1] | 22.4 | 16.8 | – | – |
| CUGUGGGCCAUAGGAUAUGCGCAGAAUUAGCAAGCAGAAGGGUGGAUCGGACAAUAAUAACUACAUGAGGAUCACCCAUGUGCU [Lelegeza] | 55.5 | 139 | – | – |
| UAUUCUUUGUUAGGAUAUGGGCCCACCCACCCACAAAGUGGGUGGGUGGGCCCAGAAGGAACAUGAGGAUCACCCAUGUAGGCC [#Aaaddddeeeeeeennnniiiinneeeee!] (puzzle (switch architecture): Small Loop Exclusion NG 1) | – | – | 88.5 | 6.16 |
| AGUUGCAAACAGAACAUGAGGAUCACCCAUGUGCUCUCGUGUAAGGAUAUACAUUCGUAUGGAAAGUAGAAGGUACUAAUUAUG [JR_SSNG3_Sub93] | 66.3 | 65.1 | – | – |
| GACGGAUUCUUAGGAUAUGCUCAGGAUAACUGAGCAGAAGGAAGAAUAACCUGAGGAUCACCCAGGUAAUACUGAACGUCAAUA [Same State NG1 - A3C, U17G Submission 9B] | 20.7 | 64.1 | – | – |
| AAAUAAAAUAUAGGAUAUGGAAACAUGAGGAUCACCCAUGUAAGAUAAGAUAAAUAAUGAUAUAGCCAGAAGGAUAAAAUAUAA [LRO005_SS NG 2] | 32.7 | 28.3 | – | – |
| AGAGCUGCUCAGAAGGAGGAUCACCCUUUCGAAAGAAAGACGGAGGCUGAAAAGCCUCCGAAAUUCUAGGAUAUGAGCAGCUCA [#SharedSequence - IExNG2: 1] (puzzle (switch architecture): Inverted Exclusion NG 2) | – | – | 411 | 204 |
| ACACAUGAGGAUCACCCAUGUAGCUGGCGUCUGCGCCAGCCACAGGAUAUACGGUAACACAAACCGUAGAAGGGUGAUAAACAC [Inerre] (puzzle (switch architecture): Same State NG 3) | – | – | 54.5 | 113 |
| GGAAUAAAUGCAGGAUAUACGUGGAAAGCCCUCAACAUGAGGAUCACCCAUGUAGAAGGGCAUCUCCCGACCGAAGCGGAUCUC [Laisraus] (puzzle (switch architecture): Small Loop Exclusion NG 1) | – | – | 4.83 | – |
| AGGUAUACUUAGAAGGGCUCCAGCAAAGCUGGAGCAGGAUAUGAGGAUCACCCAUAUCACCUGACGGUCGAAACGACCGUCAGG [#SharedSequence - IExNG1: 8-1] (puzzle (switch architecture): Inverted Exclusion NG 1) | – | – | 26.8 | 13.2 |
| UAUAACGAAAGAGGAUAUAUCGGCCGUCUACGGAUAGAAGGCUUUCGCUAUGGCACUGAUGAUCUACAUGAGGAUCACCCAUGU [EternaBot731] (puzzle (switch architecture): Exclusion NG 1) | – | – | 7.18 | – |
| ACACGUCGUGAGAAGGAGGAUCACCCUUUCGAAAGAAAUAGCCACCGUGAAAACGGUGGCAAAUCUUAGGAUAUCACGACGUGA [#SharedSequence - IExNG2: 5] (puzzle (switch architecture): Inverted Exclusion NG 2) | – | – | 189 | 189 |
| GUCGGAAACGACAAGUCAGCUCGUGAGGAUAUACAUAAAUUAAAGAUCACAUGAGGAUCACCCAUGUAGAAGGCACGAGCUGAU [#StaticStemDeletion - ENG2/2-A2] (puzzle (switch architecture): Small Loop Exclusion NG 3) | – | – | 455 | 195 |
| UUAUUAUAUGUAGGAUAUGCAUAUUAUUACUGUGCAGAAGGACAUGAGGAUCACCCAUGUAUAUUAUUAUUAUAUAUUAUAUAU (puzzle (switch architecture): Exclusion NG 1) | – | – | 20.6 | 17.2 |
| AGGAGGAAUGUAGGAUAUAUAUAUAUAUAUAGACAAAGUGUAUAUAUAUAUAUAGAAGGACAUGAGGAUCACCCAUGUUUCCCU [#Lowering the energy 13] (puzzle (switch architecture): Small Loop Exclusion NG 1) | – | – | 6.87 | 8.11 |
| AGGUGAGCUCGAUGGCGACAUGAGGAUCACCCAUGUACGAUCAGAAGGGCUCGGGCAAGAAGUGGGCAGGAUAUGGUCGGUGCC [Xeadion] (puzzle (switch architecture): Inverted Exclusion NG 3) | – | – | 4.5 | – |
| GUGCUUGUCGAAGGAUAUGGUUACAUGAGGAUCACCCAUGUUAUGCUUGGUUACUUGUUUAGUUUCCAGAAGGUCGAUUAGUUG [salish99_ExNG2_001 #Hinge] (puzzle (switch architecture): Exclusion NG 2) | – | – | 55.7 | 23 |
| AGAAACUACGAGAAGGACAUGUGGUCCUUCGGGAAAAUGAGGAUCACCCAUGUAGGAUAUCGUAGUUUCAGGAUCGUGAGAUCA [salish99_ISLExNG1_022 #HINGE] (puzzle (switch architecture): Inverted Small Loop Exclusion NG 1) | – | – | 51.1 | 69.2 |
| AAUAAUCUUUAAGGAUAUCAGUGGCAAAGCCACUGAGAAGGUGAGGAUCACCCAUCUACGUGACCCUGGAAACAGGGUCACGAA [#SharedSequence - ExNG1-12] (puzzle (switch architecture): Exclusion NG 1) | – | – | 84.6 | 66.7 |
| GGAGAUACAUGAGGAUCACCCAUGUAGGAUAUCGGGCCCAUAUCCGGCGAAAGCCGGAUAUGGGCCGAGAAGGGCGUACACACC [#LOL-6] (puzzle (switch architecture): Small Loop Exclusion NG 3) | – | – | 7.58 | 8.68 |
| UAUUCUUUGUUAGGAUAUGGGCCCACCCACCCACAAAGUGGGUGGGUGGGCCCAGAAGGAACAUGAGGAUCACCCAUGUAGGAA [#Aaaddddeeeeeeennnniiiinneeeee!] (puzzle (switch architecture): Small Loop Exclusion NG 1) | – | – | 53.1 | 11.7 |
| GACUGCAGGAUAACAACCUGCAGUCACUUCUGAGGAUCACCCAGAAGGGCUGAGGUAAUACCUCAGCAGGAUAUGGAGUGAAAA [#SharedSequence IExNG# - 5] (puzzle (switch architecture): Inverted Exclusion NG 3) | – | – | 141 | 64.3 |
| CGCUAUGACAUGAGGAUCACCCAUGUAUACAUGGGAAUGACGUAGGAUAUGCAGAAGAUUAAAGUGCAGAAGGACGGCUUAGCG [JR #DistanceClose #Static #NP SSNG3 Sub064] (puzzle (switch architecture): Same State NG 3) | – | – | 1020 | 830 |
| GGUCGACUUCAAGGAUAUGGACUGCUUUGCAGUCCAGAAGGUGAGGAUCACCCACCUACGGUCAGGUUUCUGACCGAUCGACCU [#AddUracilToBrourdLoops 4 - Jieux - Exclusion NG1] (puzzle (switch architecture): Exclusion NG 1) | – | – | 8.62 | 7.94 |
